Results: PMC9482650, “Quantitative fragmentomics allow affinity mapping of interactomes” (Nature Communications, 2022)
One block for each binder: values may come before it.

Columns and labels:
Assay in all cases: holdup assay
Design in all cases: key: below the threshold = too weak to quantify, mostly under pKd 3.1 to 4
GRIP1_3, Q9Y3R0 = biological target: T1, GRIP1_3, Q9Y3R0
T1 sequence (Q9Y3R0 247-346, limits assumed, looked up): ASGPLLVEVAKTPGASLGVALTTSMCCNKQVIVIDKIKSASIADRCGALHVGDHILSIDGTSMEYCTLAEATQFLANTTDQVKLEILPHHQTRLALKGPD

PCLO, Q9Y6V0 = biological target: T2, PCLO, Q9Y6V0
T2 sequence (Q9Y6V0 4491-4600, limits assumed, looked up): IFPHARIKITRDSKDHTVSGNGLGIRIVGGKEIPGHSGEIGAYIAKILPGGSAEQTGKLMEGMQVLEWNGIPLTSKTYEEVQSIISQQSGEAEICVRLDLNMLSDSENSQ

HTRA3, P83110 = biological target: T3, HTRA3, P83110
T3 sequence (P83110 354-453, limits assumed, looked up): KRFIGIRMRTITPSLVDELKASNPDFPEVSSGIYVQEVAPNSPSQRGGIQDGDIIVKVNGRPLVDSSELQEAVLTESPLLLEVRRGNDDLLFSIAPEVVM

MPP7, Q5T2T1 = biological target: T4, MPP7, Q5T2T1
T4 sequence (Q5T2T1 134-230, limits assumed, looked up): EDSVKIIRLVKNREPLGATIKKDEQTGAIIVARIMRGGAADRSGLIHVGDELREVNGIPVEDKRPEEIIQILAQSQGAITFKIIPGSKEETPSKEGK

GORASP1, Q9BQQ3 = biological target: GORASP1, Q9BQQ3
Chain of GORASP1, Q9BQQ3 (Q9BQQ3 1-208): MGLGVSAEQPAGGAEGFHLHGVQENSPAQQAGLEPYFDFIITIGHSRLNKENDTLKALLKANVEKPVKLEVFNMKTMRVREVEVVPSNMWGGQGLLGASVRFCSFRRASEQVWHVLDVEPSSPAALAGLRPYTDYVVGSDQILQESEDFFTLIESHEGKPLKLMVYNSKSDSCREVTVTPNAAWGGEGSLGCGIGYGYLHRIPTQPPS

LNX1_3, Q8TBB1 = biological target: LNX1_3, Q8TBB1
Chain of LNX1_3, Q8TBB1 (Q8TBB1 500-596): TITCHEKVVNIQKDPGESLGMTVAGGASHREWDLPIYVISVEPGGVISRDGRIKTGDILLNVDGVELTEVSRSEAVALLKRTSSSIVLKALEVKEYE

PDZD2_2, O15018 = biological target: T5, PDZD2_2, O15018
T5 sequence (O15018 329-429, limits assumed, looked up): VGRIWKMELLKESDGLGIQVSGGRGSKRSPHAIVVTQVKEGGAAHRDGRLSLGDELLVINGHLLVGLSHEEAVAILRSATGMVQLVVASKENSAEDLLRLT

SNTB1, Q13884 = biological target: T6, SNTB1, Q13884
T6 sequence (Q13884 107-205, limits assumed, looked up): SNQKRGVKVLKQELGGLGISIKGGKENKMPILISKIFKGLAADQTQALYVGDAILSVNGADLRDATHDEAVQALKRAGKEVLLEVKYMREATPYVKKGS

DLG3_2, Q92796 = biological target: T7, DLG3_2, Q92796
T7 sequence (Q92796 221-321, limits assumed, looked up): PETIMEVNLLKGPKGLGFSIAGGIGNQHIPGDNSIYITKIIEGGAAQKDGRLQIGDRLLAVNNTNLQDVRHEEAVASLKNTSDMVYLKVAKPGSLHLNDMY

Inadl_10, Q8NI35 = biological target: Inadl_10, Q8NI35
Chain of Inadl_10, Q8NI35 (Q8NI35 1673-1763): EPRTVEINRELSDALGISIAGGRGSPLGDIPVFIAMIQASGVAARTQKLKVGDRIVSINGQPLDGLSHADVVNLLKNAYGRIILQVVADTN

DLG2_3, Q15700 = biological target: DLG2_3, Q15700
PICK1, Q9NRD5 = biological target: PICK1, Q9NRD5
Chain of PICK1, Q9NRD5 (Q9NRD5 17-115): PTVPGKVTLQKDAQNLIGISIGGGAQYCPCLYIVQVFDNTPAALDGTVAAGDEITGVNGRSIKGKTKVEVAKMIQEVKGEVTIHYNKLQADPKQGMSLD

SCRIB_3, Q14160 = biological target: SCRIB_3, Q14160
Chain of SCRIB_3, Q14160 (Q14160 999-1103): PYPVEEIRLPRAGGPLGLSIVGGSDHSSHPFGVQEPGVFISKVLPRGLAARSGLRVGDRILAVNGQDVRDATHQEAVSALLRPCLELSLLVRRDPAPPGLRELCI

Inadl_1, Q8NI35 = biological target: Inadl_1, Q8NI35
Chain of Inadl_1, Q8NI35 (Q8NI35 113-229): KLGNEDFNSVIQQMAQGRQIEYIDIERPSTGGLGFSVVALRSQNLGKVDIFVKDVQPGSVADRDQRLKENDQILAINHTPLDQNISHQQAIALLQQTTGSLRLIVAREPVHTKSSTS

DLG1_1, Q12959 = biological target: DLG1_1, Q12959
NHERF4_1, Q86UT5-2 = biological target: NHERF4_1, Q86UT5-2
Chain of NHERF4_1, Q86UT5-2 (Q86UT5 other isoform, or with tags, fused parts or gaps): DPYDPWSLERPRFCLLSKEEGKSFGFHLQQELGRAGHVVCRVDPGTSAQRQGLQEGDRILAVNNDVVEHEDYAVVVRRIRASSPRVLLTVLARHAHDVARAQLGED

Inadl_9, Q8NI35 = biological target: Inadl_9, Q8NI35
Chain of Inadl_9, Q8NI35 (Q8NI35 1530-1615): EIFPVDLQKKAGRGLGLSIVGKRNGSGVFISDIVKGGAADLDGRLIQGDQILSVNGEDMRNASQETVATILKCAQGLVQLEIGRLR

Inadl_5, Q8NI35 = biological target: Inadl_5, Q8NI35
Chain of Inadl_5, Q8NI35 (Q8NI35 673-780): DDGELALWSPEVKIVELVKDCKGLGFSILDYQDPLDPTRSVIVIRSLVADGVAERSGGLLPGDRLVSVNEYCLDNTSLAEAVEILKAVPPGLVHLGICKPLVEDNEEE

APBA2_1, Q99767 = biological target: T8, APBA2_1, Q99767
T8 sequence (Q99767 563-664, limits assumed, looked up): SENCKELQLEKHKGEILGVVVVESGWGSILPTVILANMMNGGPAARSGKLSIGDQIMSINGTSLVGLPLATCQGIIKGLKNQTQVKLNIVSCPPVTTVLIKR

AHNAK1, Q09666 = biological target: AHNAK1, Q09666
Chain of AHNAK1, Q09666 (Q09666 4-100): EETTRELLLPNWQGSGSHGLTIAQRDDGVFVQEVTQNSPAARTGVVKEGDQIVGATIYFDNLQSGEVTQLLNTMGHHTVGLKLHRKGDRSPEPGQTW

DFNB31_1, Q9P202 = biological target: T9, DFNB31_1, Q9P202
T9 sequence (Q9P202 135-233, limits assumed, looked up): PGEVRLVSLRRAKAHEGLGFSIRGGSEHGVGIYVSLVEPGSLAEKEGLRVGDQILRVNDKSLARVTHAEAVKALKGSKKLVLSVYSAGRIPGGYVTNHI

GRIP1_7, Q9Y3R0 = biological target: T10, GRIP1_7, Q9Y3R0
T10 sequence (Q9Y3R0 999-1096, limits assumed, looked up): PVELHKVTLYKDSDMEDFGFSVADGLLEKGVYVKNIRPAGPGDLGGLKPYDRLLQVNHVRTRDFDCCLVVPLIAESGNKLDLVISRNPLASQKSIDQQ

DLG1_2, Q12959 = biological target: DLG1_2, Q12959
LIN7B, Q9HAP6 = biological target: T11, LIN7B, Q9HAP6
T11 sequence (Q9HAP6 88-185, limits assumed, looked up): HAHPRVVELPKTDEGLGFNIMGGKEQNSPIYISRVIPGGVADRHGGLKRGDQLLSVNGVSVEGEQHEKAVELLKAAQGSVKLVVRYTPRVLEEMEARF

PDZRN4_1, Q6ZMN7 = biological target: PDZRN4_1, Q6ZMN7
Chain of PDZRN4_1, Q6ZMN7 (Q6ZMN7 213-318): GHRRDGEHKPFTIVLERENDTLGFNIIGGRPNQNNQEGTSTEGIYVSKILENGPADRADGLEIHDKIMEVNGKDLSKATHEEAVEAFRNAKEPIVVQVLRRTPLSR

GRIP1_4, Q9Y3R0 = biological target: T12, GRIP1_4, Q9Y3R0
T12 sequence (Q9Y3R0 467-571, limits assumed, looked up): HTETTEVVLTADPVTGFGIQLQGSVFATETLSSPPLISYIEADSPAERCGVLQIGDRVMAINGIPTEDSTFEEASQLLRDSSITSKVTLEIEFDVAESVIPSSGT

[1] = plain residues with an end cap or a label only (N-terminal biotin on a linker: ttds)
[2] = plain residues with an end cap or a label only (N-terminal biotin on a linker: ado-ado)

pKd (GRIP1_3, Q9Y3R0; [1]): below the threshold
pKd (PCLO, Q9Y6V0; [1]): below the threshold
pKd (HTRA3, P83110; [1]): below the threshold
pKd (MPP7, Q5T2T1; [1]): below the threshold
pKd (GORASP1, Q9BQQ3; [1]): below the threshold
pKd (LNX1_3, Q8TBB1; [1]): below the threshold
pKd (PDZD2_2, O15018; [1]): 4.86
pKd (SNTB1, Q13884; [1]): below the threshold
pKd (DLG3_2, Q92796; [1]): below the threshold
pKd (Inadl_10, Q8NI35; [1]): below the threshold
pKd (DLG2_3, Q15700; [1]): 3.71
pKd (PICK1, Q9NRD5; [1]): below the threshold
pKd (SCRIB_3, Q14160; [1]): below the threshold
pKd (Inadl_1, Q8NI35; [1]): below the threshold
pKd (DLG1_1, Q12959; [1]): below the threshold
pKd (NHERF4_1, Q86UT5-2; [1]): below the threshold
pKd (Inadl_9, Q8NI35; [1]): below the threshold
pKd (Inadl_5, Q8NI35; [1]): below the threshold
pKd (APBA2_1, Q99767; [1]): below the threshold
pKd (AHNAK1, Q09666; [1]): below the threshold
pKd (DFNB31_1, Q9P202; [1]): 3.52
pKd (GRIP1_7, Q9Y3R0; [1]): below the threshold
pKd (DLG1_2, Q12959; [1]): 3.48
pKd (LIN7B, Q9HAP6; [1]): below the threshold
pKd (PDZRN4_1, Q6ZMN7; [1]): below the threshold
pKd (GRIP1_4, Q9Y3R0; [1]): below the threshold
Binder: VNKVWDQSSV [CIT, O14578]

pKd (GRIP1_3, Q9Y3R0; [2]): below the threshold
pKd (PCLO, Q9Y6V0; [2]): below the threshold
pKd (HTRA3, P83110; [2]): below the threshold
pKd (MPP7, Q5T2T1; [2]): below the threshold
pKd (GORASP1, Q9BQQ3; [2]): below the threshold
pKd (LNX1_3, Q8TBB1; [2]): 3.54
pKd (PDZD2_2, O15018; [2]): 3.62
pKd (SNTB1, Q13884; [2]): below the threshold
pKd (DLG3_2, Q92796; [2]): below the threshold
pKd (Inadl_10, Q8NI35; [2]): below the threshold
pKd (DLG2_3, Q15700; [2]): below the threshold
pKd (PICK1, Q9NRD5; [2]): below the threshold
pKd (SCRIB_3, Q14160; [2]): 3.57
pKd (Inadl_1, Q8NI35; [2]): below the threshold
pKd (DLG1_1, Q12959; [2]): below the threshold
pKd (NHERF4_1, Q86UT5-2; [2]): 3.93
pKd (Inadl_9, Q8NI35; [2]): below the threshold
pKd (Inadl_5, Q8NI35; [2]): below the threshold
pKd (APBA2_1, Q99767; [2]): 3.49
pKd (AHNAK1, Q09666; [2]): below the threshold
pKd (DFNB31_1, Q9P202; [2]): below the threshold
pKd (GRIP1_7, Q9Y3R0; [2]): below the threshold
pKd (DLG1_2, Q12959; [2]): below the threshold
pKd (LIN7B, Q9HAP6; [2]): below the threshold
pKd (PDZRN4_1, Q6ZMN7; [2]): 3.73
pKd (GRIP1_4, Q9Y3R0; [2]): below the threshold
Binder: EDLTKNHDEL [RCN1, Q15293]

pKd (GRIP1_3, Q9Y3R0; [2]): below the threshold
pKd (PCLO, Q9Y6V0; [2]): below the threshold
pKd (HTRA3, P83110; [2]): below the threshold
pKd (MPP7, Q5T2T1; [2]): below the threshold
pKd (GORASP1, Q9BQQ3; [2]): below the threshold
pKd (LNX1_3, Q8TBB1; [2]): below the threshold
pKd (PDZD2_2, O15018; [2]): 4.65
pKd (SNTB1, Q13884; [2]): 5.4
pKd (DLG3_2, Q92796; [2]): below the threshold
pKd (Inadl_10, Q8NI35; [2]): below the threshold
pKd (DLG2_3, Q15700; [2]): below the threshold
pKd (PICK1, Q9NRD5; [2]): 4.14
pKd (SCRIB_3, Q14160; [2]): 4.56
pKd (Inadl_1, Q8NI35; [2]): below the threshold
pKd (DLG1_1, Q12959; [2]): below the threshold
pKd (NHERF4_1, Q86UT5-2; [2]): 3.77
pKd (Inadl_9, Q8NI35; [2]): below the threshold
pKd (Inadl_5, Q8NI35; [2]): below the threshold
pKd (APBA2_1, Q99767; [2]): below the threshold
pKd (AHNAK1, Q09666; [2]): below the threshold
pKd (DFNB31_1, Q9P202; [2]): below the threshold
pKd (GRIP1_7, Q9Y3R0; [2]): below the threshold
pKd (DLG1_2, Q12959; [2]): 3.88
pKd (LIN7B, Q9HAP6; [2]): below the threshold
pKd (PDZRN4_1, Q6ZMN7; [2]): 4.61
pKd (GRIP1_4, Q9Y3R0; [2]): below the threshold
Binder: GFGEERESIL [KIDINS220, Q9ULH0]

pKd (GRIP1_3, Q9Y3R0; [1]): below the threshold
pKd (PCLO, Q9Y6V0; [1]): below the threshold
pKd (HTRA3, P83110; [1]): below the threshold
pKd (MPP7, Q5T2T1; [1]): below the threshold
pKd (GORASP1, Q9BQQ3; [1]): below the threshold
pKd (LNX1_3, Q8TBB1; [1]): below the threshold
pKd (PDZD2_2, O15018; [1]): 4.36
pKd (SNTB1, Q13884; [1]): 4.93
pKd (DLG3_2, Q92796; [1]): 3.93
pKd (Inadl_10, Q8NI35; [1]): below the threshold
pKd (DLG2_3, Q15700; [1]): 4.07
pKd (PICK1, Q9NRD5; [1]): below the threshold
pKd (SCRIB_3, Q14160; [1]): 5.17
pKd (Inadl_1, Q8NI35; [1]): below the threshold
pKd (DLG1_1, Q12959; [1]): 3.64
pKd (NHERF4_1, Q86UT5-2; [1]): below the threshold
pKd (Inadl_9, Q8NI35; [1]): below the threshold
pKd (Inadl_5, Q8NI35; [1]): below the threshold
pKd (APBA2_1, Q99767; [1]): below the threshold
pKd (AHNAK1, Q09666; [1]): below the threshold
pKd (DFNB31_1, Q9P202; [1]): 5.03
pKd (GRIP1_7, Q9Y3R0; [1]): below the threshold
pKd (DLG1_2, Q12959; [1]): 4.37
pKd (LIN7B, Q9HAP6; [1]): below the threshold
pKd (PDZRN4_1, Q6ZMN7; [1]): 4.84
pKd (GRIP1_4, Q9Y3R0; [1]): below the threshold
Binder: LDSQIQETSI [MAP4, P27816]

pKd (GRIP1_3, Q9Y3R0; [1]): below the threshold
pKd (PCLO, Q9Y6V0; [1]): below the threshold
pKd (HTRA3, P83110; [1]): below the threshold
pKd (MPP7, Q5T2T1; [1]): below the threshold
pKd (GORASP1, Q9BQQ3; [1]): below the threshold
pKd (LNX1_3, Q8TBB1; [1]): below the threshold
pKd (PDZD2_2, O15018; [1]): 4.52
pKd (SNTB1, Q13884; [1]): 4.49
pKd (DLG3_2, Q92796; [1]): 4.54
pKd (Inadl_10, Q8NI35; [1]): below the threshold
pKd (DLG2_3, Q15700; [1]): 3.86
pKd (PICK1, Q9NRD5; [1]): below the threshold
pKd (SCRIB_3, Q14160; [1]): 4.79
pKd (Inadl_1, Q8NI35; [1]): below the threshold
pKd (DLG1_1, Q12959; [1]): 4.31
pKd (NHERF4_1, Q86UT5-2; [1]): below the threshold
pKd (Inadl_9, Q8NI35; [1]): below the threshold
pKd (Inadl_5, Q8NI35; [1]): below the threshold
pKd (APBA2_1, Q99767; [1]): below the threshold
pKd (AHNAK1, Q09666; [1]): below the threshold
pKd (DFNB31_1, Q9P202; [1]): below the threshold
pKd (GRIP1_7, Q9Y3R0; [1]): below the threshold
pKd (DLG1_2, Q12959; [1]): 4.65
pKd (LIN7B, Q9HAP6; [1]): below the threshold
pKd (PDZRN4_1, Q6ZMN7; [1]): below the threshold
pKd (GRIP1_4, Q9Y3R0; [1]): below the threshold
Binder: PKRPFVESNV [TANC2, Q9HCD6]
